These results are taken from PMC10101019.

The experiment deals with DENV-2 particles (dengue virus 2).

B1: Trx-tagged mucin protein of Aedes aegypti (natural protein)
chain: MQTFACICLISILISESFGKFDTPADPVFSDDVTDYDSPSGIDYYDVKDYPMIPGELNVYRKTKPGGLLPSSDVDMKGKMLTSKEVTTKPRNIPTRQHRVQNRIRKPARFSTVVPLPTAALTAPQCILQRTTPKPLWRREGGRVIIDGSDPNIDIFKVMRESRRRPTEAPKPTGNLPMRDIVGNEIKPETASNQFLVLGSVLRCRETKQEVHEHRTRNSRVEISDPTVTGLTVEYPPNIIRLTHRFESTSTGGKAFVFRTMNGKQGILKLKWYSCPTRNSG
On to B1, for which the DENV-2 titer by focus-forming assay 6 days after microinjection of DENV-2 particles with anti-mucin antibodies into Ae. aegypti, against DENV-2 with PBS or pre-immune serum (% reduction in DENV-2 titer) came to 12.5.
